T1: CD79b on target B cell lines (Ramos (CD79b+) cells; Daudi cells) (UniProt P40259 29-229, limits assumed)
T1 construct: whole, on cells; On cells CD79b stands in the B cell receptor complex with CD79a; also called Ramos (CD79+) cells; CD79b expression cells
T1 sequence (looked up): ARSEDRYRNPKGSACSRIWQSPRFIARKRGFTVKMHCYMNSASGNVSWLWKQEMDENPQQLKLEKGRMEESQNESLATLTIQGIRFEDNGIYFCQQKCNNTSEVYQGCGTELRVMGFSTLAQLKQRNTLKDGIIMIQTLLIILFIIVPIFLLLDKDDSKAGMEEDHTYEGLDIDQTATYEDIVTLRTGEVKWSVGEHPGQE

B1: ch44G2/ch3-7 Fc-silenced (bispecific antibody, human IgG1, kappa, L234A L235A)
heavy: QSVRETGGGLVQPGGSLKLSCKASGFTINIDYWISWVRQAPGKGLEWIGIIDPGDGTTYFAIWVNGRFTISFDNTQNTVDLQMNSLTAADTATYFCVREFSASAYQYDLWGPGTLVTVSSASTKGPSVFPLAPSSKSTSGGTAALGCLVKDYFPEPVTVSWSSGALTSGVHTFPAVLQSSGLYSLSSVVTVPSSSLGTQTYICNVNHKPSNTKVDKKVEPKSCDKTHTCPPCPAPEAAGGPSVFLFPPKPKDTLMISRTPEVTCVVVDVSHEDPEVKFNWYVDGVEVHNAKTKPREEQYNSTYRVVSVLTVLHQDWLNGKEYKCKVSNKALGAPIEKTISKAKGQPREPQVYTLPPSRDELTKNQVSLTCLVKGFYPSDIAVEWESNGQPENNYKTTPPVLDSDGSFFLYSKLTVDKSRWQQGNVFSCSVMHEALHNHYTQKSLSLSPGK
light: DLVMTQTPSSVSAAVGGTVSINCRASEDIENYLAWYQQKPGQPPKLLIYRASTLSSGVSSRFSGSGSGTEFTLTISGVQPDDAATYYCQQGYRNSNVDNPFGGGTEMVVKRTVAAPSVFIFPPSDEQLKSGTASVVCLLNNFYPREAKVQWKVDNALQSGNSQESVTEQDSKDSTYSLSSTLTLSKADYEKHKVYACEVTHQGLSSPVTKSFNRGECGGGGSGGGGSGGGGSGGGGSAFELTQTPSSVEAAVGGTVTINCQASQDIYIYLAWYQQKPGQPPKLLIYSASTLASGVSSRFTGSRSGTQFTLTISDLEPADAATYYCQSYDGTSNTGFGGGTEVVVRGGGGSGGGGSGGGGSGGGGSQSLEESGGRLVTPGTPLTLTCTVSGFSPSSYYMSWVRQAPGKGLEYIGIIFSGGSTWYASWAKGRVTISRTSTTVDLKMTSLTTEDTATYFCARGDAVGSGYWGLWGPGTLVTVSS
notes: LC format: the NKp46 scFv (VL-GS-VH) is joined to the C terminus of the anti-CD79b light chain, with LALAPG silenced Fc; also called CD79b/NKp46 bispecific antibody; 44G2/3-7
B2: ch44G2/ch5-13 Fc-silenced (bispecific antibody, human IgG1, kappa, L234A L235A)
heavy: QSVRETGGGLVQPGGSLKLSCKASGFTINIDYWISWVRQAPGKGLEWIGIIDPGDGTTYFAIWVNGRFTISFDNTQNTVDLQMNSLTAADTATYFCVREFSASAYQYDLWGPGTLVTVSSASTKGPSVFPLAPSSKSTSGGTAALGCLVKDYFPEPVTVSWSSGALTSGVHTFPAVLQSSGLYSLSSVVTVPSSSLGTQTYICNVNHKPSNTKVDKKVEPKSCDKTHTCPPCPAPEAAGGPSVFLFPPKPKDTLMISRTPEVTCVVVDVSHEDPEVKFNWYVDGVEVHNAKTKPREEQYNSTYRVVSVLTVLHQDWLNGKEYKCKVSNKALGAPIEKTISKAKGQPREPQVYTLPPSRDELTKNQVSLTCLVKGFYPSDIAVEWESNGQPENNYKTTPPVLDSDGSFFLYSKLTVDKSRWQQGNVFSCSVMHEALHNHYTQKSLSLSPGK
light: DLVMTQTPSSVSAAVGGTVSINCRASEDIENYLAWYQQKPGQPPKLLIYRASTLSSGVSSRFSGSGSGTEFTLTISGVQPDDAATYYCQQGYRNSNVDNPFGGGTEMVVKRTVAAPSVFIFPPSDEQLKSGTASVVCLLNNFYPREAKVQWKVDNALQSGNSQESVTEQDSKDSTYSLSSTLTLSKADYEKHKVYACEVTHQGLSSPVTKSFNRGECGGGGSGGGGSGGGGSGGGGSAYDMTQTPASVEVAVGGTVTIKCQASQSISTALAWYQQKPGQPPKLLIYKASTLASGVSSRFKGSGSGTQFTLTISGVEPADAATYYCQQGYSRSNVDNVFGGGTEVVVKGGGGSGGGGSGGGGSGGGGSQSVEESGGRLVTPGTPLTLTCTVSGFSLSSYHMSWVRQAPGKGLEWIGYILANTDSYYANWAKGRFTISKTSTTVDLKITSPTTEDTATYFCARYDNHDAAYSTLWGPGTLVTVSS
notes: LC format, LALAPG silenced Fc; also called CD79b/NKp46 bispecific antibody; 44G2/5-13
B3: ch44G2/ch6-1 Fc-silenced (bispecific antibody, human IgG1, kappa, L234A L235A)
heavy: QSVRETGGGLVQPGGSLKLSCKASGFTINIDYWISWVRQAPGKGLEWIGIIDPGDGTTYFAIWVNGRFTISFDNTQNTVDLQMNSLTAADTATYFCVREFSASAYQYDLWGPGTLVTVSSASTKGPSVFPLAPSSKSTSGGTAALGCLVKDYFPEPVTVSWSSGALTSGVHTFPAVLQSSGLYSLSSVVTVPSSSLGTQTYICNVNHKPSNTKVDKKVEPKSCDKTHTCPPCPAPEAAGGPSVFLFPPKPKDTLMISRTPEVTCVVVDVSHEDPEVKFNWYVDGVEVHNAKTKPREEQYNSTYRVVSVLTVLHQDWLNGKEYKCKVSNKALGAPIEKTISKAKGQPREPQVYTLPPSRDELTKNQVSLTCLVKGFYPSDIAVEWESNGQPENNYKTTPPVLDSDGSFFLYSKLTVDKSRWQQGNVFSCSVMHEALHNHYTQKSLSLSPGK
light: DLVMTQTPSSVSAAVGGTVSINCRASEDIENYLAWYQQKPGQPPKLLIYRASTLSSGVSSRFSGSGSGTEFTLTISGVQPDDAATYYCQQGYRNSNVDNPFGGGTEMVVKRTVAAPSVFIFPPSDEQLKSGTASVVCLLNNFYPREAKVQWKVDNALQSGNSQESVTEQDSKDSTYSLSSTLTLSKADYEKHKVYACEVTHQGLSSPVTKSFNRGECGGGGSGGGGSGGGGSGGGGSADVVMTQTPASVSEPVGGTITINCQASENIYSSLAWYQQKPGQPPKLLMYDVSDLASGVPSRFSGSGSGTEFALTISDVQPDDAATYFCLGGYPSNNYRMAFGGGTEVVVKGGGGSGGGGSGGGGSGGGGSQSLEESGGGLVQPEGSLTLTCTASGFSFSSSAWICWVRQAPGKGLEWIGCINTVSVNAYYASWAKGRFTISKTSSTTVTLQVTSLTAADTATHFCARNPYNSLRLWGPGTLVTVSS
notes: LC format, LALAPG silenced Fc; also called CD79b/NKp46 bispecific antibody; 44G2/6-1
B4: ch44G2/ch6-1 (LC) Fc-optimized (bispecific antibody, human IgG1, kappa)
heavy: QSVRETGGGLVQPGGSLKLSCKASGFTINIDYWISWVRQAPGKGLEWIGIIDPGDGTTYFAIWVNGRFTISFDNTQNTVDLQMNSLTAADTATYFCVREFSASAYQYDLWGPGTLVTVSSASTKGPSVFPLAPSSKSTSGGTAALGCLVKDYFPEPVTVSWNSGALTSGVHTFPAVLQSSGLYSLSSVVTVPSSSLGTQTYICNVNHKPSNTKVDKRVEPKSCDKTHTCPPCPAPELLAGPSVFLFPPKPKDTLMISRTPEVTCVVVDVSHEDPEVKFNWYVDGVEVHNAKTKPREEQYNSTYRVVSVLTVLHQDWLNGKEYKCKVSNKALPLPEEKTISKAKGQPREPQVYTLPPSRDELTKNQVSLTCLVKGFYPSDIAVEWESNGQPENNYKTTPPVLDSDGSFFLYSKLTVDKSRWQQGNVFSCSVMHEALHNHYTQKSLSLSPGK
light: B3 light
notes: LC format: the NKp46 scFv stands at the C terminus of the anti-CD79b light chain, with optimized Fc (G236A, A330L, I332E, EU numbering); also called chimeric CD79b/NKp46 bispecific antibody; NK cell engager
B5: ch44G2/ch6-1 (HC) Fc-optimized (bispecific antibody, human IgG1, kappa)
heavy: QSVRETGGGLVQPGGSLKLSCKASGFTINIDYWISWVRQAPGKGLEWIGIIDPGDGTTYFAIWVNGRFTISFDNTQNTVDLQMNSLTAADTATYFCVREFSASAYQYDLWGPGTLVTVSSASTKGPSVFPLAPSSKSTSGGTAALGCLVKDYFPEPVTVSWNSGALTSGVHTFPAVLQSSGLYSLSSVVTVPSSSLGTQTYICNVNHKPSNTKVDKRVEPKSCDKTHTCPPCPAPELLAGPSVFLFPPKPKDTLMISRTPEVTCVVVDVSHEDPEVKFNWYVDGVEVHNAKTKPREEQYNSTYRVVSVLTVLHQDWLNGKEYKCKVSNKALPLPEEKTISKAKGQPREPQVYTLPPSRDELTKNQVSLTCLVKGFYPSDIAVEWESNGQPENNYKTTPPVLDSDGSFFLYSKLTVDKSRWQQGNVFSCSVMHEALHNHYTQKSLSLSPGKGGGGSGGGGSGGGGSADVVMTQTPASVSEPVGGTITINCQASENIYSSLAWYQQKPGQPPKLLMYDVSDLASGVPSRFSGSGSGTEFALTISDVQPDDAATYFCLGGYPSNNYRMAFGGGTEVVVKGGGGSGGGGSGGGGSGGGGSQSLEESGGGLVQPEGSLTLTCTASGFSFSSSAWICWVRQAPGKGLEWIGCINTVSVNAYYASWAKGRFTISKTSSTTVTLQVTSLTAADTATHFCARNPYNSLRLWGPGTLVTVSS
light: DLVMTQTPSSVSAAVGGTVSINCRASEDIENYLAWYQQKPGQPPKLLIYRASTLSSGVSSRFSGSGSGTEFTLTISGVQPDDAATYYCQQGYRNSNVDNPFGGGTEMVVKRTVAAPSVFIFPPSDEQLKSGTASVVCLLNNFYPREAKVQWKVDNALQSGNSQESVTEQDSKDSTYSLSSTLTLSKADYEKHKVYACEVTHQGLSSPVTKSFNRGEC
notes: HC format: the NKp46 scFv stands at the C terminus of the heavy chain Fc, with optimized Fc; also called chimeric CD79b/NKp46 bispecific antibody; NK cell engager
B6: h44G2/h6-1 (LC) Fc-optimized (bispecific antibody, human IgG1, kappa)
heavy: EQQLVETGGGLIQPGGSLRLSCAASGFTINIDYWISWVRQAPGKGLEWIGIIDPGDGTTYFAIWVSGRFTISFDNSKNTVYLQMNSLRAEDTAVYFCVREFSASAYQYDLWGPGTLVTVSSASTKGPSVFPLAPSSKSTSGGTAALGCLVKDYFPEPVTVSWNSGALTSGVHTFPAVLQSSGLYSLSSVVTVPSSSLGTQTYICNVNHKPSNTKVDKKVEPKSCDKTHTCPPCPAPELLAGPSVFLFPPKPKDTLMISRTPEVTCVVVDVSHEDPEVKFNWYVDGVEVHNAKTKPREEQYNSTYRVVSVLTVLHQDWLNGKEYKCKVSNKALPLPEEKTISKAKGQPREPQVYTLPPSRDELTKNQVSLTCLVKGFYPSDIAVEWESNGQPENNYKTTPPVLDSDGSFFLYSKLTVDKSRWQQGNVFSCSVMHEALHNHYTQKSLSLSPGK
light: ELVMTQSPATLSVSPGERATLSCRASEDIENYLAWYQQKPGQPPRLLIYRASTLSSGVPARFSGSGSGTEFTLTISSLQSEDFAVYYCQQGYRNSNVDNPFGGGTKVEIKRTVAAPSVFIFPPSDEQLKSGTASVVCLLNNFYPREAKVQWKVDNALQSGNSQESVTEQDSKDSTYSLSSTLTLSKADYEKHKVYACEVTHQGLSSPVTKSFNRGECGGGGSGGGGSGGGGSDVQMTQSPSTLSASVGDRVTITCQASENIYSSLAWYQQKPGKPPKLLMYDVSDLASGVPSRFSGSGSGTEFTLTISSLQPDDFATYFCLGGYPSNNYRMAFGCGTKVEIKGGGGSGGGGSGGGGSGGGGSEQQLLESGGGLVQPGGSLRLSCAASGFSFSSSAWIVWVRQAPGKCLEWIGVINTVSVNAYYASWAKGRFTISKDSSKNTVYLQMNSLRAEDTAVYFCARNPYNSLRLWGPGTLVTVSS
notes: LC format, optimized Fc; also called humanized CD79b/NKp46 bispecific antibody; humanized NK cell engager
B7: h44G2/h6-1 (HC) Fc-optimized (bispecific antibody, human IgG1, kappa)
heavy: EQQLVETGGGLIQPGGSLRLSCAASGFTINIDYWISWVRQAPGKGLEWIGIIDPGDGTTYFAIWVSGRFTISFDNSKNTVYLQMNSLRAEDTAVYFCVREFSASAYQYDLWGPGTLVTVSSASTKGPSVFPLAPSSKSTSGGTAALGCLVKDYFPEPVTVSWNSGALTSGVHTFPAVLQSSGLYSLSSVVTVPSSSLGTQTYICNVNHKPSNTKVDKKVEPKSCDKTHTCPPCPAPELLAGPSVFLFPPKPKDTLMISRTPEVTCVVVDVSHEDPEVKFNWYVDGVEVHNAKTKPREEQYNSTYRVVSVLTVLHQDWLNGKEYKCKVSNKALPLPEEKTISKAKGQPREPQVYTLPPSRDELTKNQVSLTCLVKGFYPSDIAVEWESNGQPENNYKTTPPVLDSDGSFFLYSKLTVDKSRWQQGNVFSCSVMHEALHNHYTQKSLSLSPGGGGGSGGGGSGGGGSDVQMTQSPSTLSASVGDRVTITCQASENIYSSLAWYQQKPGKPPKLLMYDVSDLASGVPSRFSGSGSGTEFTLTISSLQPDDFATYFCLGGYPSNNYRMAFGCGTKVEIKGGGGSGGGGSGGGGSGGGGSEQQLLESGGGLVQPGGSLRLSCAASGFSFSSSAWIVWVRQAPGKCLEWIGVINTVSVNAYYASWAKGRFTISKDSSKNTVYLQMNSLRAEDTAVYFCARNPYNSLRLWGPGTLVTVSS
light: ELVMTQSPATLSVSPGERATLSCRASEDIENYLAWYQQKPGQPPRLLIYRASTLSSGVPARFSGSGSGTEFTLTISSLQSEDFAVYYCQQGYRNSNVDNPFGGGTKVEIKRTVAAPSVFIFPPSDEQLKSGTASVVCLLNNFYPREAKVQWKVDNALQSGNSQESVTEQDSKDSTYSLSSTLTLSKADYEKHKVYACEVTHQGLSSPVTKSFNRGEC
notes: HC format, optimized Fc; also called humanized CD79b/NKp46 bispecific antibody; humanized NK cell engager

Target: T2, human NKp46 expressed on cells (primary human NK cells; CHOK1-hNKp46 cells) (human, UniProt O76036 22-304)
T2 construct: whole, on cells; also called cell surface expressed NKp46; NCR1
T2 sequence (O76036 22-304): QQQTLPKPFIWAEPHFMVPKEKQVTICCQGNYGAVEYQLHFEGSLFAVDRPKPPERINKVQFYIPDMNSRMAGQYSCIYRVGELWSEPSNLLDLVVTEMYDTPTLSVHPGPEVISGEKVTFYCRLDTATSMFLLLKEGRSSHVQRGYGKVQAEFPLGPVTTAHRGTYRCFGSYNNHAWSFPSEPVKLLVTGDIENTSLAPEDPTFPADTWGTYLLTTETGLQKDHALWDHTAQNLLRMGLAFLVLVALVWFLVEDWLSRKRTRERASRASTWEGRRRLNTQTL
Assay: flow cytometry on purified CD56+ human NK cells, anti-human IgG PE

Binding result, binds:
B1
B2
B3

Target: T1, CD79b on target B cell lines (Ramos …)
Assay: flow cytometry on Ramos cells, anti-human IgG PE

Binding result, binds:
B1
B2
B3

Target: T2, human NKp46 expressed on cells (primary …)
Assay: flow cytometry on CHOK1-hNKp46 cells, anti-human IgG Fc PE

Binding result, binds:
B4
B5
B6
B7

Target: T1, CD79b on target B cell lines (Ramos …)
Assay: flow cytometry on Ramos cells, anti-human IgG Fc PE

Binding result, binds:
B4
B5
B6
B7

Reference: EP4713370A2 (dated 2026)
